Results published in the supplement of paper PMC10126150.
± gives the standard deviation of the averaged measurements.

System: ATP
Assay: switch fluorescence ratio, 500 uM ATP over buffer (Cy3 cluster intensity, sum of 5 cycles each) (fold (ratio)); higher = stronger signal-on switching upon ATP binding; sequences stand for … in TCGTCGGCAGCGTCAGATGTGTATAAGAGACAGTTTTTTTTTTTTTTTTTTTTTTTTT…TC
Conditions: aptamer strand: ATP DNA aptamer (quencher-CACCTGGGGGAGTATTGCGGAGGAAGG + anchor), 100 nM annealed; ATP concentration: 500 uM
Summary of the method: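 Values give the fluorescence ratio for each switch-domain sequence, averaged from per-cluster ratios of summed target-cycle to summed buffer-cycle Cy3 intensity. The Cy3-labelled switching-strand clusters sat on a modified Illumina MiSeq flow-cell, were annealed to 100 nM quencher-labelled ATP aptamer, and were imaged in selection buffer, then after 15 min with 500 uM ATP at 22 °C. Five cycles ran with NaOH stripping and re-annealing between them, and clusters outside 100-1000 RFU were excluded.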
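Also: ATP exposure 15 min at 22 °C before imaging.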

Row | Sequence | switch fluorescence ratio
1 | TTTTGTGGGT | 0.986 ± 0.022
2 | TTTTGTTACC | 1.02 ± 0.018
3 | TTTTGTTCAC | 1.01 ± 0.017
4 | TTTTGTTGAG | 1 ± 0.035
5 | TTTTGTTGGC | 1.04 ± 0.035
6 | TTTTGTTTA | 0.984 ± 0.022
7 | TTTTTAAAGG | 0.976 ± 0.013
8 | TTTTTAACGT | 1.02 ± 0.027
9 | TTTTTAAGCG | 1 ± 0.023
10 | TTTTTAATAC | 1.33 ± 0.29
11 | TTTTTAATAG | 0.9855 ± 0.002
12 | TTTTTAATTC | 1.03 ± 0.024
13 | TTTTTACAGT | 1.02 ± 0.048
14 | TTTTTACCGT | 1.12 ± 0.088
15 | TTTTTACGGT | 1.1 ± 0.15
16 | TTTTTAGCTG | 1.04 ± 0.058
17 | TTTTTAGGC | 1.01 ± 0.078
18 | TTTTTAGGCC | 0.999 ± 0.016
19 | TTTTTAGGGA | 0.99 ± 0.029
20 | TTTTTAGTCC | 1 ± 0.023
21 | TTTTTAGTGG | 0.981 ± 0.015
22 | TTTTTATAAG | 0.994 ± 0.019
23 | TTTTTATAAT | 1.01 ± 0.026

Row | Sequence | switch fluorescence ratio
24 | TTTTTATATA | 0.997 ± 0.016
25 | TTTTTATCGT | 1.02 ± 0.017
26 | TTTTTATCTA | 1.01 ± 0.036
27 | TTTTTATGAA | 1.011 ± 0.0019
28 | TTTTTATGCT | 0.99 ± 0.035
29 | TTTTTATTCG | 0.994 ± 0.019
30 | TTTTTCAAGG | 1.01 ± 0.013
31 | TTTTTCAATA | 1.01 ± 0.023
32 | TTTTTCAATT | 0.982 ± 0.017
33 | TTTTTCACCG | 1.07 ± 0.079
34 | TTTTTCACTT | 1 ± 0.036
35 | TTTTTCAGAT | 1.03 ± 0.055
36 | TTTTTCAGTA | 0.981 ± 0.016
37 | TTTTTCATGT | 0.997 ± 0.044
38 | TTTTTCCGAG | 1.08 ± 0.025
39 | TTTTTCCGCA | 2.18 ± 0.83
40 | TTTTTCCGGT | 1.07 ± 0.13
41 | TTTTTCCGTG | 0.9819 ± 0.0037
42 | TTTTTCGGCC | 0.979 ± 0.026
43 | TTTTTCTACG | 1.2 ± 0.28
44 | TTTTTCTGCT | 0.9786 ± 0.0051
45 | TTTTTCTTCA | 1 ± 0.011
46 | TTTTTGAAT | 1.01 ± 0.021

Row | Sequence | switch fluorescence ratio
47 | TTTTTGACC | 1.008 ± 0.0017
48 | TTTTTGAGCA | 1.05 ± 0.049
49 | TTTTTGAT | 0.972 ± 0.022
50 | TTTTTGATGA | 1.02 ± 0.015
51 | TTTTTGATTA | 0.986 ± 0.062
52 | TTTTTGATTT | 1.01 ± 0.036
53 | TTTTTGCATT | 1.038 ± 0.0028
54 | TTTTTGCCGA | 1.01 ± 0.052
55 | TTTTTGCCGG | 1.01 ± 0.014
56 | TTTTTGCGAA | 1.033 ± 0.0011
57 | TTTTTGCGGT | 0.978 ± 0.025
58 | TTTTTGCTGG | 0.99 ± 0.029
59 | TTTTTGCTTA | 0.993 ± 0.013
60 | TTTTTGGAAA | 1.01 ± 0.051
61 | TTTTTGGAGG | 1 ± 0.034
62 | TTTTTGGATT | 1 ± 0.032
63 | TTTTTGGCTA | 1 ± 0.021
64 | TTTTTGTCCA | 1 ± 0.041
65 | TTTTTGTCGT | 0.983 ± 0.025
66 | TTTTTGTTGC | 1.02 ± 0.02
67 | TTTTTTAACG | 0.9973 ± 0.0053
68 | TTTTTTACCC | 1.01 ± 0.028
69 | TTTTTTAGCT | 1.01 ± 0.055

Row | Sequence | switch fluorescence ratio
70 | TTTTTTATTG | 0.989 ± 0.029
71 | TTTTTTCATA | 0.9974 ± 0.0093
72 | TTTTTTCCGC | 1.34 ± 0.35
73 | TTTTTTCCTT | 1.01 ± 0.034
74 | TTTTTTCGAA | 0.998 ± 0.032
75 | TTTTTTCGAG | 1 ± 0.05
76 | TTTTTTCGCG | 1 ± 0.016
77 | TTTTTTCTGA | 1.01 ± 0.028
78 | TTTTTTCTGT | 1.01 ± 0.029
79 | TTTTTTCTTT | 1.01 ± 0.033
80 | TTTTTTGAAC | 1.01 ± 0.03
81 | TTTTTTGAT | 1.01 ± 0.032
82 | TTTTTTGCAA | 1.06 ± 0.061
83 | TTTTTTGCG | 1.01 ± 0.063
84 | TTTTTTGGAC | 1.01 ± 0.045
85 | TTTTTTGGCG | 1.02 ± 0.15
86 | TTTTTTGGTT | 0.997 ± 0.026
87 | TTTTTTGTAA | 1.01 ± 0.036
88 | TTTTTTGTAG | 1.01 ± 0.016
89 | TTTTTTTAAG | 1 ± 0.018
90 | TTTTTTTCTT | 0.994 ± 0.024
91 | TTTTTTTGCA | 1 ± 0.024
92 | TTTTTTTGTT | 1 ± 0.034
